One experiment addresses Kohinoor. Description: SEC; purified protein diluted to 10 μM, equilibrated at 6 °C overnight; 250 μL on Superdex 200 Increase 10/300 GL, run at 6 °C, 0.75 mL/min, absorption at 280 nm; elution volumes compared with tetrameric DsRed, dimeric dTomato and monomeric mEGFP. For orientation: Size exclusion chromatography separates by hydrodynamic size, large species first.
The target in a further experiment is Padron. The experiment is described as above.

For orientation: stoichiometry N means the number of molecules, sites or subunits per partner or assembly. In the experiment with Kohinoor, Kohinoor showed a stoichiometry N of 2. In the case of Padron, in the experiment with Padron, the stoichiometry N is 4.

For the origin of these results see publication PMC8291764.
